Measured values published in PMC12225687.

What was measured:
Assay in all cases: flow cytometry on cells; PE-labelled pMHC multimer (HLA-A*02:01 with the … peptide) stained on Jurkat J1601 cells (human CD8α/β, TCRα/β CRISPR-KO) electroporated with TCR RNA, after overnight incubation; read-out % multimer+CD8+ cells, averages of two independent replicates
1G4 TCR (human) = target: 1G4 TCR (human)
1G4-c50 TCR (human) = target: 1G4-c50 TCR (human)
1G4-c53c50 TCR (human) = target: 1G4-c53c50 TCR (human)

Question: For “HLA-A*02:01 with the NY-ESO-1 157-165 peptide …, PE-labelled multimer (from UniProt P61769 21-119) (peptide-MHC)”, which % of multimer+CD8+ Jurkat cells (1G4 TCR (human)) is on record?
Answer: 90.9%

Question: What about the % of multimer+CD8+ Jurkat cells (1G4-c50 TCR (human)) of the same substance?
Answer: 99.6%

Question: What about the % of multimer+CD8+ Jurkat cells (1G4-c53c50 TCR (human)) of the same substance?
Answer: 99.1%
